{
  "source": "patent US20220281981A1",
  "about": "(INVECTYS, published 2022)",
  "key": {"HLA-G1/5 β2M-free": {"target": "T1, HLA-G1/5 β2M-free (human, UniProt P17693 25-298, limits assumed)", "T1 construct": "Printed as one antigen, 'HLA-G1/5 β2M-free'; also called HLA-G1/β2M free; HLA-G5/β2M free", "experiment": "flow cytometry, titration of 15E7, readout % of binding"}, "HLA-G6": {"target": "HLA-G6 (human, UniProt P17693-6 25-227, limits assumed)", "experiment": "flow cytometry, titration of 15E7, readout % of binding"}, "[1]": {"target": "T2, HLA-G1 β2M-associated, on lentivirus-transduced cells (Jurkat HLA-G1Lv, K562 HLA-G1Lv) (human, UniProt P17693 25-338; P61769 21-119)", "T2 construct": "whole, on cells; also called HLA-G1 B2M-associated", "experiment": "flow cytometry on Jurkat HLA-G1Lv and K562 HLA-G1Lv cells, GAM-PE detection", "procedure": "Flow cytometry analyses were performed using LSR FORTESSA (Beckton Dickinson, Le Pont-de-Claix, France); data were analyzed with FlowJo X software (Tree star, Ashland, USA)."}},
  "data": [
    {"binder": "15E7 monoclonal antibody (antibody, V domains shown, Tested as a monoclonal antibody in flow cytometry and detected with goat anti-mouse IgG; also called 15E7 antibody; anti HLA-G-α3 β2M-free 15E7 antibody) VH: QVQLQQPGAELVRPGSSVKLSCKASGYTFTDYWMDWVKQRPGQGLEWIGTIYPSDSSTHYNQEFKGKATMTVDKSSSTAYMHLSSLTSEDSAVYYCAREGLAGVFYFDYWGQGTTLTVSS VL: DVLMTQIPFSLPVSLGDQASISCRSSQSIVHRSGNTYLEWYLQKPGQSPKLLIYKVSNRFSGVPDRFSGSGSGTDFTLKISRVEAEDLGVYYCFQGSHLPPTFGGGTTLEIK", "values": [
      {"measurement": "EC50 (read off the curve)", "setting": "HLA-G1/5 β2M-free", "value": "~20", "unit": "ng/mL"},
      {"measurement": "EC50 (read off the curve)", "setting": "HLA-G6", "value": "~100", "unit": "ng/mL"},
      {"measurement": "binding result", "setting": "[1]", "value": "no binding"}
    ]}
  ]
}
